Results taken from US20040002450A1, “Y17 - isolated molecules comprising epitopes containing sulfated moieties, antibodies to such epitopes, and uses thereof” (priority 2000, published 2004).

Test system: glycocalicin, platelet lysate, KG-1 cell lysate, Raji cell lysate
Test: Western blot on glycocalicin and cell lysates
Type: binding, human
Experimental: Antibodies against GPIbα (CD42b) recognize platelet lysate and glycocalicin and but not KG-1 cell lysate (a Y1 binding positive myeloid cell line) or Raji cell lysate (a B cell line that is negative for Y1 binding at concentrations at which KG-1 cells are positive for Y1 binding). […] (FIG. 20).
The nitrocellulose membrane was blocked using 5% skim milk for one hour at room temperature. The membrane was then washed 3 times for 5 minutes each with 0.05% Tween 20 in PBS at room temperature. The membrane was incubated with 5 μg/ml Y1-biotin (or 181-biotin) in 2% skim milk in PBS for one hour at room temperature. The membrane was then washed 3 times for 5 minutes each with cold 0.05% Tween 20 in PBS in the cold room (about 4 to about 10° C.). The membrane was then incubated in the cold room with a 1:1000 dilution of SAV-HRP (streptavidin-HRP) (at a final concentration of […]) in 2% skim milk, 0.05% Tween. The dilution was carried out at room temperature (about 25° C.), then the diluted SAV-HRP was cooled on ice for 10-15 minutes before use. The incubation was carried out for 1 hour with gentle shaking. After the incubation with SAV-HRP, the membrane was washed, as above. The membrane was then incubated with Super Signal mixture (Pierce) for 5 minutes as directed in the commercial protocol, then excess solution was dried. […]

B1: Y1 scFv: fully human scFv clone binding platelets and myelogenous leukemia cells; SEQ ID NO: 25, heavy chain CDR3 SEQ ID NO: 8 (protein, listed as Homo sapiens)
scFv: MKYLLPTAAAGLLLLAAQPAMAEVQLVESGGGVVRPGGSLRLSCAASGFTFDDYGMSWVRQAPGKGLEWVSGINWNGGSTGYADSVKGRFTISRDNAKNSLYLQMNSLRAEDTAVYYCARMRAPVIWGQGTLVTVSRGGGGSGGGGSGGGGSSELTQDPAVSVALGQTVRITCQGDSLRSYYASWYQQKPGQAPVLVIYGKNNRPSGIPDRFSGSSSGNTASLTITGAQAEDEADYYCNSRDSSGNHVVFGGGTKLTVLGAAAEQKLISEEDLNGAA
Question: B1 was tested. Which “recognition of glycocalicin, platelet lysate, KG-1 and Raji cell lysate” value did it give?
Answer: recognized both glycocalicin, platelet lysate, and KG-1 cells, but not Raji cell extract
